The results in this text go back to the supplement of paper PMC5998384.

The test system of data set [1] is HeLa Kyoto. Nature of the data set: thermal stability score vs G1/S (z-score of summed log2 fold changes over temperatures); higher = more thermally stable than in G1/S.
Data set [2] deals with HeLa Kyoto. The data set can be described thus: solubility change mitosis vs G1/S (difference of NP-40 vs SDS log2 ratios) (log2 ratio difference); higher = more soluble in mitosis.
In data set [3] the test system is HeLa Kyoto. The data set can be described thus: solubility in G1/S (NP-40 vs SDS abundance) (log2 ratio); higher = more soluble. The settings on record: cell cycle stage: G1/S.
The test system of data set [4] is HeLa Kyoto. Nature of the data set: melting temperature (median over replicates), in situ; higher = more thermally stable.
The mark [5] stands for this setting: cell cycle stage: early G1 (4.5 h after nocodazole release).
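For melting temperature (median over replicates), in situ in this document: HeLa Kyoto cells synchronized by double thymidine or nocodazole block, proteins quantified by TMT10plex mass spectrometry, three independent biological replicates.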
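For solubility change mitosis vs G1/S (difference of NP-40 vs SDS log2 ratios) in this document: synchronized HeLa Kyoto cells (double thymidine block for G1/S, nocodazole release for mitosis), protein amounts in NP-40 versus SDS lysates quantified by mass spectrometry, three biological replicates.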
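For solubility in G1/S (NP-40 vs SDS abundance) in this document: HeLa Kyoto cells arrested at G1/S by double thymidine block, proteins quantified by TMT10plex mass spectrometry in mild NP-40 versus SDS extracts, three biological replicates.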
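For thermal stability score vs G1/S (z-score of summed log2 fold changes over temperatures) in this document: synchronized HeLa Kyoto cells, proteins quantified by TMT10plex mass spectrometry, three biological replicates, mitosis taken 0.5 h after nocodazole release, G1/S directly after double thymidine block.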

For the sequence “MPAERKKPASMEEKDSLPNNKEKDCSERRTVSSKERPKDDIKLTAKKEVSKAPEDKKKRLEDDKRKKEDKERKKKDEEKVKAEEESKKKEEEEKKKHQEEERKKQEEQAKRQQEEEAAAQMKEKEESIQLHQEAWERHHLRKELRSKNQNAPDSRPEENFFSRLDSSLKKNTAFVKKLKTITEQQRDSLSHDFNGLNLSKYIAEAVASIVEAKLKISDVNCAVHLCSLFHQRYADFAPSLLQVWKKHFEARKEEKTPNITKLRTDLRFIAELTIVGIFTDKEGLSLIYEQLKNIINADRESHTHVSVVISFCRHCGDDIAGLVPRKVKSAAEKFNLSFPPSEIISPEKQQPFQNLLKEYFTSLTKHLKRDHRELQNTERQNRRILHSKGELSEDRHKQYEEFAMSYQKLLANSQSLADLLDENMPDLPQDKPTPEEHGPGIDIFTPGKPGEYDLEGGIWEDEDARNFYENLIDLKAFVPAILFKDNEKSCQNKESNKDDTKEAKESKENKEVSSPDDLELELENLEINDDTLELEGGDEAEDLTKKLLDEQEQEDEEASTGSHLKLIVDAFLQQLPNCVNRDLIDKAAMDFCMNMNTKANRKKLVRALFIVPRQRLDLLPFYARLVATLHPCMSDVAEDLCSMLRGDFRFHVRKKDQINIETKNKTVRFIGELTKFKMFTKNDTLHCLKMLLSDFSHHHIEMACTLLETCGRFLFRSPESHLRTSVLLEQMMRKKQAMHLDARYVTMVENAYYYCNPPPAEKTVKKKRPPLQEYVRKLLYKDLSKVTTEKVLRQMRKLPWQDQEVKDYVICCMINIWNVKYNSIHCVANLLAGLVLYQEDVGIHVVDGVLEDIRLGMEVNQPKFNQRRISSAKFLGELYNYRMVESAVIFRTLYSFTSFGVNPDGSPSSLDPPEHLFRIRLVCTILDTCGQYFDRGSSKRKLDCFLVYFQRYVWWKKSLEVWTKDHPFPIDIDYMISDTLELLRPKIKLCNSLEESIRQVQDLEREFLIKLGLVNDKDSKDSMTEGENLEEDEEEEEGGAETEEQSGNESEVNEPEEEEGSDNDDDEGEEEEEENTDYLTDSNKENETDEENTEVMIKGGGLKHVPCVEDEDFIQALDKMMLENLQQRSGESVKVHQLDVAIPLHLKSQLRKGPPLGGGEGEAESADTMPFVMLTRKGNKQQFKILNVPMSSQLAANHWNQQQAEQEERMRMKKLTLDINERQEQEDYQEMLQSLAQRPAPANTNRERRPRYQHPKGAPNADLIFKTGGRRR [UPF2]”, the thermal stability score is -0.603 in the data set on HeLa Kyoto [1] (setting [5]) and -0.161 in the data set with HeLa Kyoto [1] (cell cycle stage: mitosis). In addition, in the data set on HeLa Kyoto [2], the “solubility change mitosis (log2)” value was -0.109. For the same sequence, the “solubility in G1/S (log2)” value with HeLa Kyoto [3] is -0.245. The values for the melting temperature in the data set on HeLa Kyoto [4] (cell cycle stage: G1/S) and with HeLa Kyoto [4] (cell cycle stage: mitosis) were 49.6 °C and 49.7 °C, respectively.

As to “MPAPIRLRELIRTIRTARTQAEEREMIQKECAAIRSSFREEDNTYRCRNVAKLLYMHMLGYPAHFGQLECLKLIASQKFTDKRIGYLGAMLLLDERQDVHLLMTNCIKNDLNHSTQFVQGLALCTLGCMGSSEMCRDLAGEVEKLLKTSNSYLRKKAALCAVHVIRKVPELMEMFLPATKNLLNEKNHGVLHTSVVLLTEMCERSPDMLAHFRKLVPQLVRILKNLIMSGYSPEHDVSGISDPFLQVRILRLLRILGRNDDDSSEAMNDILAQVATNTETSKNVGNAILYETVLTIMDIKSESGLRVLAINILGRFLLNNDKNIRYVALTSLLKTVQTDHNAVQRHRSTIVDCLKDLDVSIKRRAMELSFALVNGNNIRGMMKELLYFLDSCEPEFKADCASGIFLAAEKYAPSKRWHIDTIMRVLTTAGSYVRDDAVPNLIQLITNSVEMHAYTVQRLYKAILGDYSQQPLVQVAAWCIGEYGDLLVSGQCEEEEPIQVTEDEVLDILESVLISNMSTSVTRGYALTAIMKLSTRFTCTVNRIKKVVSIYGSSIDVELQQRAVEYNALFKKYDHMRSALLERMPVMEKVTTNGPTEIVQTNGETEPAPLETKPPPSGPQPTSQANDLLDLLGGNDITPVIPTAPTSKPSSAGGELLDLLGDINLTGAPAAAPAPASVPQISQPPFLLDGLSSQPLFNDIAAGIPSITAYSKNGLKIEFTFERSNTNPSVTVITIQASNSTELDMTDFVFQAAVPKTFQLQLLSPSSSIVPAFNTGTITQVIKVLNPQKQQLRMRIKLTYNHKGSAMQDLAEVNNFPPQSWQ [AP1G1]”, the thermal stability score was -1.48 in the data set with HeLa Kyoto [1] (setting [5]) and 0.274 in the data set on HeLa Kyoto [1] (cell cycle stage: mitosis). Also, the “solubility change mitosis (log2)” value in the data set on HeLa Kyoto [2] is -0.192. For the same sequence, the “solubility in G1/S (log2)” value with HeLa Kyoto [3] is -0.225. The values for the melting temperature with HeLa Kyoto [4] (cell cycle stage: G1/S) and in the data set with HeLa Kyoto [4] (cell cycle stage: mitosis) were 50.3 °C and 50.1 °C, respectively.
